Source: patent EP3446126B1 (Université Libre de Bruxelles, dated 2024)

Molecular target: human DPP6 protein (as used in the affinity analysis) (human, UniProt P42658 117-865, limits assumed)
Assay: affinity analysis versus human DPP6 protein; method not stated

human DPP6 protein (as used in the affinity analysis), sequence (P42658 117-865 limits assumed): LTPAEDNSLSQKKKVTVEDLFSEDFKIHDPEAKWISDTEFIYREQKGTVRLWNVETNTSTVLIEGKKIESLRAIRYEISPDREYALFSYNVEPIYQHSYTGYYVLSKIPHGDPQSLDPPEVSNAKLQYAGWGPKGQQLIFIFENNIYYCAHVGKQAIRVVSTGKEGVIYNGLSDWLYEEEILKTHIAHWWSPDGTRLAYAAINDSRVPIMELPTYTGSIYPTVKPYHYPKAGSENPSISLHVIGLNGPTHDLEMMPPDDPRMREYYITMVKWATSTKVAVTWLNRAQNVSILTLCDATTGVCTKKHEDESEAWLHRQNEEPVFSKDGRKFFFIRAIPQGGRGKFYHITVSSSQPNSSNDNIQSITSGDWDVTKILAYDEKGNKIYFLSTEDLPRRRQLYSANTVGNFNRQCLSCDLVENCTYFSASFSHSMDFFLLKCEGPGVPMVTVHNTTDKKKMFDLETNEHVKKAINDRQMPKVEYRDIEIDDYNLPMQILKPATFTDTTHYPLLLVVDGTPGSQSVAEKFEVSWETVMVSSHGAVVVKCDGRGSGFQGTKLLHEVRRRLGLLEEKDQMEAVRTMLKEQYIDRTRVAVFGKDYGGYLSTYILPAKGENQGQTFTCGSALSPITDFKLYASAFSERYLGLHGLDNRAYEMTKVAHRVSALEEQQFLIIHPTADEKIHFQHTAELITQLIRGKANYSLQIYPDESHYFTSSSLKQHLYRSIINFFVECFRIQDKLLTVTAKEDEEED

B1: nanobody 4hD29 (VHH)
VHH: QVQLQESGGGLVQPGGSLRLSCAASGFTFSSNYMTWVRQAPGKGPEWVSGINPDGSSTYYADSVKGRFTISRDNAKNTLYLQMNSLKSEDTALYKCATGAAPRIPTTLRGQGTQVTVSS
notes: Dromedary nanobody from an immune phage display library; also called Nb 4hD29; 4hD29 Nb
Kd: 1.2 nM
